Laboratory results taken from a protein production outcome set (Wang et al. 2014).

Assay: label from the status in PepcDB records

| Sequence | protein production |
| --- | --- |
| MQYSSFGEKFNRYSGITQLMDDLNDGLRTPGAIMLGGGNPAAIPAMLDYFHNTSAEMLADGSLLNAMTNYDGPQGKDVFVKSLATLLRETYGWNISEKNITLTNGSQSGFFYLFNLFAGKQPDGAHKKILLPLAPEYIGYGDAGIDDDIFVSYRPEIELLDQGLFKYHVDFSELKVDESVAAICVSRPTNPTGNVLTEEEIHKLDQLARDNGVPLIIDNAYGVPFPNIIFEDIEPFWNDNTILCMSLSKLGLPGLRCGIVIANEAVTQALTNMNGIISLAPGSMGPALVQRMIEKGDLLRLSEQVIKPFYRQKAQHAVELLQSAITDPRFRIHKPEGAIFLWLWFDELPITTMELYQRLKARGVLIVPGEYFFIGQPQEWPHAHECLRMNYVQNEQAMEQGIAIIAEEVQKAYQQANV | failed |
| MKKVSIIIPFKGQTEAELMLPLSSIYNQIGVDLSQLDIHLVNDGGKTIDLSKFDVLADRLEIHYHEIPNGGPGVARQYGIDNSISEYIMFIDADDVLYYVGALWPFYNASNQGHQMIRASYWEQIAGNPYTYTVHGNGDRKAAYGKWYKRSYIEMLGLRFMPDLPIYEDTYFVGLACELATDTCFLEEKVYMWLANPNSITRTVENKFNYQAHIYARENRYWFEMIRKWKPECLVTDFENYLTNMYLKSQKYPPVDEKAWWEEQHKLITSVSDIFSGWTQELQKQVEDKSANPQNEWHGIETDGFKEWATQSLPW | failed |
| MNFELSSPFSPTGDQPEAIAALSDGIKSGVPFQTLLGVTGSGKTFTIANVIKEVRKPTLILSHNKTLAAQLYSEFKAFFPNNAVEYFVSYYDYYQPEAYLPTTDTYIEKDLQINDEIDKLRLRATASLLSGRKDVIVVSSVSCLYGMADPTAFAEKVVHLEKGMRIDRDKLLRRFVDALYVNNKIEFNRGCFRVNGDTVDIFPAIETFDGAAYRIEFWDDEVDRISSFDPQTGQEIDEQDELNIYPTNLFVTTQERINTAIGQIDVDLGTQVNFLREIGKPYEAKRLYERVTFDLEMIRELGHCSGIENYSRYFDGRQAGERPFCLLDYFPKDFLLVVDESHVTIPQIRAMYGGDYSRKKNLVDYGFRLPAAMDNRPLTFDEFESLTPLAIYVSATPADYELEKSEGIVVDQVIRPTGLLDPVIEVRPTLNQIDDLMEEITQRAAVDERVLVTTLTKRMAEELTAYLTRMGIRCNYIHSDVDTLERIQIMDDLRKGLFDVLIGVNLLREGLDLPEVSLVAILDADKEGFLRSHRSLTQTAGRAARNVNGKVIFYADKITDSMRLTMDETARRREKQLAYNEKHGITPKQVIKNSVSLVAEKQQPVTGEPYAYVEPEPSLVADPVVQYMNRKQLEKAIERTKKQMMEAAKKLDFIEAAQFRDELVKLEDLLVTKKD | failed |
| MGFPRSIVLIAALLGGAVSGLTACSSFPFWSAGKEEDTDIKDEHADWGPAQFYAEAKHAMMDGSYDKAIKLYEKLEARYPFGDYATQAQIDVAFCYYKNNEPESAIAAVDRFIKLNPTEPHVDYAYYLRGLINYNRGIGFIDRWLPTDSSQRDPGSARDAYNDFETLLNKFPNSVYREDARQRAIALRNNLAMYDIHVADYYMRRRAYVAAIRRSAEVVQKYQRTQAIPHALRIMEDAYRQLDMPQMADDIARVYALNYAEGRLSKDEDYERTVMEEVWDFIGFDK | failed |
| MSIEKKVGFFFIAGLVLLGVMLELGEKWNPFQKAIPYKTYLSSTTGLKLGDPVRLAGVEVGKITKIAIADSRVEVAFEVKPGTAIKADSVATIRLTNLLGGQFLGLSFGSPDAPVLPPGSAVKSRETANIDVIVDNVGDLAKDAKVLIKDLTVNQKEVFQKVSSMLDENRGNLRGAIENMNSITTKMDRGQGSLALLLNDKSLYRNTNELAASMKNVTAKIEKGEGSLGKFVNDDAFYRDAKGAVANLNDGAKDIKEIAAKINRGEGSVGKLVNDESLYNELRDASKNVGEVAKKINNGQGTLGKLVNDDTLYRDTTAAMKKLDKATEGLSDTGPISVIGSMVGTLFLEHHHHHH | not failed |
| MSTNYIDCQLLNKMERQPSFSSFDCGDPFLDSFAPKKLANADANNDSRVYVAVDGDIGVGYATMKVFMLSNDEYKILSGKYPRQVPVVMLDQIAVDKAYQGKGIGKRLMRKVLEATVLVNELAAAKGLALWAHPRAKDFYESLGFEAIPDATKQVQDVELTLMFIHVETILDALK | failed |
| MPALDLIRPSVTAMRVIASVNADFARELKLPPHIRSLGLISADSDDVTYIAADEATKQAMVEVVYGRSLYAGAAHGPSPTAGEVLIMLGGPNPAEVRAGLDAMIAHIENGAAFQWANDAQDTAFLAHVVSRTGSYLSSTAGITLGDPMAYLVAPPLEATYGIDAALKSADVQLATYVPPPSETNYSAAFLTGSQAACKAACNAFTDAVLEIARNPIQRA | failed |
| MDPEVFAQARLRMDQLTKPPRALGYLEEVALRLAALQGRVKPELGRGAVVVAAADHGVVAEGVSAYPQEVTRQMVLNFLRGGAAINQFALAADCAVYVLDVGVVGELPDHPGLLKRKVRPGTANLAQGPAMTPEEAERALLAGREAARRAIAEGATLLAAGDMGIGNTTAAAALTAALLGLPPEAVVGRGTGVGEEGLRRKRQAVARALARLHPGMGPLEVAAEVGGLELVAIAGIYLEGYEAGLPLVLDGFPVTAGALLAWKMAPGLRDHLFAGHLSREPGHRHQLEALGLRPLLDLDLALGEGTGAVLAMPLLRAAARILHMATFQEAGVSRG | not failed |
| MNTLSVLLSLFTVIVVQRVFKKLSISLLSGVIVMILSLKVRNILEIFFWTVSSDSFWSLIVTVFLIYLLSGMMEKSGDYSRFSEEMRTIFSKNVDSFVPALIGLMPMPGGALFTAPIVKNSLPEENSLKLAVKNYWFRHTIEFFWPIYPAVVLVSELSGIHPGKVSLTLFPVFAIAFFLGWFFFNGKQLPCLSKPRSFFNLFPLIPVLGTGVLILLFKVSGWFALLLSTSGYAVFRRRYLLKTLKQVFNKWDVFLVLFFVYIYKVVVEHSGVGEGIAAEFVRWNLSPWILLIFLPLVSGISTGITQAAVGISLPVLMEVFSSKYAVYTYMFAVGGVILSPVHLCVVLSAKFFEVEVFDILKKVFLPLVLTLILGALVLGVIL | failed |
| EEHPRAWIISVGNELLIGRTINTNAAWLGSRLTLLGFEVERVVTVPDRVEDIAEEVGRALGRARVVITTGGLGPTYDDVTLQGVAMALGRGLKLHPGALEMVRRFYSKRGLGLTEDRVKMAMLPDGAEPLENPVGAAPGAVVEARGSLVASLPGVPSEMEAMFEKALRPLLEEIAPPGAVVECGIAVVGVPESSLAPYIKEASRVSPRVYVKSHPQGSEIGKPLVR | failed |
| MSDSLVVCEVDPELKETLRKFRFRKETNNAAIIMKVDKDRQMVVLEDELQNISPEELKLELPERQPRFVVYSYKYVHDDGRVSYPLCFIFSSPVGCKPEQQMMYAGSKNRLVQTAELTKVFEIRTTDDLTETWLKEKLAFFR | not failed |
| MSTSKAITLTLFIATTLLAPCNAAANATTKPLFPAILIFGDSTVDTGNNNYPLPTIFRAEHFPYGMDLPDGKANGRFSNGKLISDIIATKLNIKEFIPPFLQPNLSDQDILTGVCFASAGAGYDDLTSLSTQAIRVSEQPNMFKSYIARLKGIVGDKKAMEIINNAFVVVSAGPNDFILNYYEIPSRRLEYPFISGYQDFILKRLENFVRELYSLGVRNVLVGGLPPMGCLPIHMTAKFRNIFRFCLEHHNKDSVLYNEKLQNLLPQIEASLPGSKFLYADVYNPMMEMIQNPSKYGFKETKRGCCGTGFLETSFMCNVFSPVCQNRSEFLFFDSIHPSEATYNVIGNLLDPLIRGKFQA | failed |
| MDRLSDFERLTAEIKSLKESLKEKIDKVLSRSVKEASETSEEKKEQSEIAEEGNEDGDNVLVSSLEDEIDSKEEEVLAASCRLLNMFRELDCTFDGPERRMGRLNLNEITEACSRHIVTAMETEQETLNRAISISNAWKHQVSALFNGGIEGEQIKKDLQRLKASSGDEVYWLIRKAFREARVALRTNVYMKPWNLEERREATLMELLGPLPEIARRRLQGRPRRDDCC | failed |
| GDLAGSLDLGTGRIALYSIDVSGHGVASALMTARLAGLLSGLSTDGGVARSDGACRQCAGHDSWPPEILAARLNRMMIADLGVEQYFTMAYAEIDLRSGALALVQAGHPHPVVLRAGGRVELLGQGGLPVGLLPDATFERSETRLLPGDRLFLLSDGVTECPDLSGHELGEAGLVRLLAEHAGLGSEELMEALVWALHERMGGGDFRDDVSGVLFDY | failed |
